Assay results from patent publication US20030190739A1, “Tankyrase2 materials and methods” (priority 1999, published 2003).

Test: Poly(ADP-ribose) polymerase activity assay (32P-NAD+, SDS-PAGE, autoradiography)
Assay type: biochemical
Settings: 250 ng protein, 10 min at room temperature, 2.5 μM unlabeled NAD+
Method: For poly(ADP-ribose) polymerase activity assays, reagents were obtained from Sigma unless otherwise indicated. PARP1A/TANK2B (250 ng) protein was incubated for 10 min at room temperature in Assay buffer (total volume of 20 μL) [100 mM Tris-HCl, pH 8.0, 10 mM MgCl2, 10% glycerol, 1.5 mM DTT (Boehringer Mannheim/Roche Molecular Biochemicals), 2.5 μM unlabeled NAD^+, 16.7 μg/mL E. coli Strain B DNA, and 0.33 μCi γ-[^32P]-NAD^+ (NEN, Boston, Mass.). Reactions were stopped by boiling in SDS running buffer and separated by SDS-polyacrylamide gel electrophoresis (SDS-PAGE). Autoradiography was used to visualize labeled protein. Addition of poly(ADP-ribose) polymers to protein substrate results in an increase in molecular weight of the protein, and consequently causes the protein to run higher on SDS PAGE. Also, the level of poly(ADP-ribose) polymers added to the protein substrate can vary with each single protein molecule, resulting in labeled proteins with different molecular weights, which appears on the autoradiography film as a ladder or smear [for example, see Smith et al. Science 282:2484-7 (1998)]. […] The PARP1A/TANK2B poly(ADP-ribose) polymerase reaction produced a ladder of labeled protein from approximately 136 kDa to 250 kDa.

## PARP1A/TANK2B: Fusion protein containing aa 1-662 of PARP1 fused upstream of aa 996-1385 of TANK2 (SEQ ID NO:178)
  intrinsic poly(ADP-ribose) polymerase activity: possessed intrinsic poly(ADP-ribose) polymerase activity
